In article PMC5667893, “TRIM5α SPRY/coiled-coil interactions optimize avid retroviral capsid recognition” (PLoS Pathogens, 2017):
Numbering of substitutions follows the chain as printed. Names and notes keep the numbering of the source.

B1: CC-L2 fragment of rhesus TRIM5α (residues 133–300) E197A (domain or fragment, UniProt Q0PF16 133-300, looked up)
chain: MEEVAQEYHVKLQTALEMLRQKQQEAEKLEADIREEKASWKIQIDYDKTNVSADFEQLREILDWAESNELQNLEKEEEDILKSLTKSETEMVQQTQYMRELISELEHRLQGSMMDLLQGVDGIIKRIENMTLKKPKTFHKNQRRVFRAPDLKGMLDMFRELTDARRYW
notes: TRIM5α, rhesus, coiled-coil and L2 linker, residues 133-300; dimeric with a trailing shoulder of monomer by SEC-MALS; also called CC-L2 E197A; source: E. coli BL21(DE3), autoinduction, purified (Ni-NTA, anion exchange, size exclusion); not shown: His, N-terminal, cleaved; SUMO, N-terminal, cleaved
B2: CC-L2 fragment of rhesus TRIM5α (residues 133–300), wildtype (domain or fragment, UniProt Q0PF16 133-300, looked up)
chain: B1 chain with A65E
notes: TRIM5α, rhesus, coiled-coil and L2 linker, residues 133-300; His-SUMO leader cleaved with Ulp1 protease; also called TRIM5α_(133–300); wildtype control; source: E. coli BL21(DE3), autoinduction, purified (Ni-NTA, anion exchange, size exclusion); not shown: His, N-terminal, cleaved; SUMO, N-terminal, cleaved
B3: CC-L2 fragment of rhesus TRIM5α (residues 133–300) D186A (domain or fragment, UniProt Q0PF16 133-300, looked up)
chain: B1 chain with D54A, A65E
notes: TRIM5α, rhesus, coiled-coil and L2 linker, residues 133-300; also called CC-L2 D186A; source: E. coli BL21(DE3), autoinduction, purified (Ni-NTA, anion exchange, size exclusion); not shown: His, N-terminal, cleaved; SUMO, N-terminal, cleaved
B4: CC-L2 fragment of rhesus TRIM5α (residues 133–300) I193A (domain or fragment, UniProt Q0PF16 133-300, looked up)
chain: B1 chain with I61A, A65E
notes: TRIM5α, rhesus, coiled-coil and L2 linker, residues 133-300; also called CC-L2 I193A; source: E. coli BL21(DE3), autoinduction, purified (Ni-NTA, anion exchange, size exclusion); not shown: His, N-terminal, cleaved; SUMO, N-terminal, cleaved
B5: CC-L2 fragment of rhesus TRIM5α (residues 133–300) E201A (domain or fragment, UniProt Q0PF16 133-300, looked up)
chain: B1 chain with A65E, E69A
notes: TRIM5α, rhesus, coiled-coil and L2 linker, residues 133-300; also called CC-L2 E201A; source: E. coli BL21(DE3), autoinduction, purified (Ni-NTA, anion exchange, size exclusion); not shown: His, N-terminal, cleaved; SUMO, N-terminal, cleaved

Assays:
[1] = target: disulfide-stabilized HIV-1 CA tubes (HIV-1); assay: co-sedimentation; purified TRIM5-21R (5 μM) incubated with disulfide-stabilized HIV-1 CA tubes, fractionated by centrifugation, load, soluble and pellet fractions on SDS-PAGE with Coomassie staining, densitometry; done right after purification
[2] = target: TRIM5-21R F187A (human | rhesus); assay: anion exchange chromatography + SEC; relative fractions of monomer and dimer of TRIM5-21R proteins during purification; linear salt gradient; dimer to monomers
[3] = target: TRIM5-21R L190A (human | rhesus); assay: as above
[4] = target: the molecule itself; assay: SEC-MALS; purified CC-L2 proteins, 50 μL injected at 0.5–1 mg/mL; dimer to monomers

Molecule	percent in the pellet with the CA tubes [1] [%]	stoichiometry N [4]	further results
TRIM5-21R (rhesus TRIM5α with its RING domain replaced by that of human TRIM21), wildtype			percent co-pelleted with the CA tubes [1]: 50%
TRIM5-21R D186A	36		
TRIM5-21R E197A	61		
TRIM5-21R F187A			monomer fraction of the total protein [2]: > 50%
TRIM5-21R L190A	34		monomer fraction of the total protein [3]: > 50%
TRIM5-21R L194A	29		
B1		2	
B2		2	
B3		2	
B4		2	
B5		2	
